Assay [1] deals with T1, NRP2-Fc (R&D Systems #2215-N2) (human, UniProt O60462 23-864, limits assumed).
T1 construct: Bought reagent used as NRP2 in the SPR experiments; also called human NRP2; Neuropilin 2; not shown: Fc
Put plainly: SPR; column Binding to NRP2 observed by SPR. A general note: Surface plasmon resonance follows binding to a sensor surface in real time, without labels.

The target in assay [2] is T1, NRP2-Fc (R&D Systems #2215-N2). Put plainly: SPR: NRP2 as analyte over immobilized WARS WHEP [panel D].
In assay [3] the target is T2, NRP2a-GFP fusion protein on HEK293T cells (human, UniProt O60462 23-931).
T2 construct: Transiently expressed; cells fixed before staining; also called NRP2v2-GFP; cell-expressed NRP2a; not shown: GFP (Origene RG220706, NM_003872 ORF clone)
Kind of assay: competition assay, immunofluorescence microscopy on HEK293T cells expressing NRP2v2-GFP, GFP-bright gate; VEGF-C titrated, competitor 175 nM Fc-HRS(2-60)/anti-Fc-PE [panel A]. The protocol: HEK293T cells previously transfected with NRP2v2-GFP were passed the night before staining to 96 well Greiner Clear flat bottomed Microplates pre-coated with collagen coating solution. Supernatants were removed and cells were washed 1 time with binding buffer. Cells were then fixed with 50 μL of 3.7% methanol-free formaldehyde for 20 minutes at room temperature. Cells were washed 2× with binding buffer and then blocked with 100 μL of blocking buffer for 1 hour at room temperature. The cells were then washed one time with binding buffer and then incubated with 50 μL of staining complex overnight at 4 degrees Celsius. Cells were then washed 3 times with binding buffer, and then nuclei were counter stained with […] Hoechst diluted in DPBS for 10 minutes at room temperature. The Hoechst stain was replaced with 1×PBS and subsequently read on an IN Cell Analyzer 2200. 20× images were acquired and analyzed using In Cell Analyzer 1000 Workstation software. Segmentation of the cell mask was achieved using the GFP channel, and the average PE signal intensity was determined within this mask above a threshold intensity of 5000 (termed GFP Bright cells).

For assay [4], the target named is T1, NRP2-Fc (R&D Systems #2215-N2). Put plainly: SPR: NRP2 as analyte over immobilized GARS Fc-WHEP [panel B].
A further assay has as its target T3, Human HARS (human, UniProt P12081 1-509, limits assumed).
T3 construct: also called human HRS; human histidyl-tRNA synthetase
T3 sequence: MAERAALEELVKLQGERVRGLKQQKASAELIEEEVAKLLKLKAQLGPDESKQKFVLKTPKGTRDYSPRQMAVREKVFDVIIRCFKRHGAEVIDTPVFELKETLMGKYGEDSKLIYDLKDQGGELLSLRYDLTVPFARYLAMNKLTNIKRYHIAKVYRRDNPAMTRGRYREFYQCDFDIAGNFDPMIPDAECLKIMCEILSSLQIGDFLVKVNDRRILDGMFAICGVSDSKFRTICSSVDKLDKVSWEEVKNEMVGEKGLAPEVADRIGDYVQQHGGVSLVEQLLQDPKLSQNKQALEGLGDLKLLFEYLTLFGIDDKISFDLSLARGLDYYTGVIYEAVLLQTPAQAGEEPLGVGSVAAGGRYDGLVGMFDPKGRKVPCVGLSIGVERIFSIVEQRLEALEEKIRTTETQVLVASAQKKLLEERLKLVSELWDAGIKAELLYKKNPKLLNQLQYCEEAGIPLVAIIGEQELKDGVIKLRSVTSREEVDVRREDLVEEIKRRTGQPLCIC
Put plainly: SPR (ProteOn); HRS protein immobilized, antibody as analyte.

The next assay concerns the target T4, Mouse HARS (mouse, UniProt Q61035 1-509, limits assumed).
T4 construct: also called mouse HRS
T4 sequence: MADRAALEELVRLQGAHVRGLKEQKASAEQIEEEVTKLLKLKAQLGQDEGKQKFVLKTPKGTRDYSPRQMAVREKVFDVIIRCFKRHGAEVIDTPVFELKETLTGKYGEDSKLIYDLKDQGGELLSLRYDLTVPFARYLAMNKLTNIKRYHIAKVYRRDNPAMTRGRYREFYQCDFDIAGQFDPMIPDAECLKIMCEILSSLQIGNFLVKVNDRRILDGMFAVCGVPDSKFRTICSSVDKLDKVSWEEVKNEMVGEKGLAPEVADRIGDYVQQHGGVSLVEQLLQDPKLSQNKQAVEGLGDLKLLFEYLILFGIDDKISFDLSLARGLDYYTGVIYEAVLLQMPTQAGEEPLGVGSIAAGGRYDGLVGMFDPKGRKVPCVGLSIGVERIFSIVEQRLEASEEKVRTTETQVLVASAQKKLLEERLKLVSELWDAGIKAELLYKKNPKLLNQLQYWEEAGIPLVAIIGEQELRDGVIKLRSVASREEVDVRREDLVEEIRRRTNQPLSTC
The assay is described as above.

For assay [5], the target named is T5, Fc-HRS(2-60) (human, UniProt P12081 2-60).
T5 construct: Fc at the N-terminus, HRS residues 2-60 (WHEP domain) at the C-terminus; in the imaging assay pre-complexed with anti-Fc-PE; also called HRS-Fc fusion protein construct; ATYR1923; not shown: human IgG Fc region
T5 sequence: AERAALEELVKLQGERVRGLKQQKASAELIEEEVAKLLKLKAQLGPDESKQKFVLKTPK
Kind of assay: flow cytometry blocking assay: 43.75 nM biotinylated Fc-HRS(2-60) complexed with 87.5 nM streptavidin-PE, added with titrated antibody to Expi293 cells stably expressing NRP2, the blocked partner [panel A].

In assay [6] the target is T5, Fc-HRS(2-60). Kind of assay: flow cytometry blocking assay: 43.75 nM biotinylated Fc-HRS(2-60) complexed with 87.5 nM streptavidin-PE, added with titrated antibody to Expi293 cells stably expressing NRP2, the blocked partner [panel B]. A general note: In flow cytometry, cells or beads pass a laser one at a time.
In assay [7] the target is T1, NRP2-Fc (R&D Systems #2215-N2). Put plainly: SPR: NRP2 as analyte over immobilized MARS Fc-WHEP [panel C].

B1: VEGF-A145 (ligand, human, UniProt P15692-6 27-171, looked up)
chain: APMAEGGGQNHHEVVKFMDVYQRSYCHPIETLVDIFQEYPDEIEYIFKPSCVPLMRCGGCCNDEGLECVPTEESNITMQIMRIKPHQGQHIGEMSFLQHNKCECRPKKDRARQEKKSVRGKGKGQKRKRKKSRYKSWSVCDKPRR
As for B1, in assay [1], the binding result is “no binding”.

B2: WARS WHEP (other, UniProt P23381 8-64, looked up)
chain: SLLELFNSIATQGELVRSLKAGNASKDEIDSAVKMLVSLKMSYKAAAGEDYKADCPP
notes: domain: WHEP domain; also called WHEP domain of WARS with a V5/His tag; not shown: V5/His tag
Turning to B2, in assay [2], the binding result is given as “no binding (tested: 20 nM)”.

B3: VEGF-A121 (ligand, human, UniProt P15692-9 27-147, looked up)
chain: APMAEGGGQNHHEVVKFMDVYQRSYCHPIETLVDIFQEYPDEIEYIFKPSCVPLMRCGGCCNDEGLECVPTEESNITMQIMRIKPHQGQHIGEMSFLQHNKCECRPKKDRARQEKCDKPRR
Take B3: the binding result in assay [1] is “no binding”.

B4: VEGF-C (ligand, human, UniProt P49767 103-227, looked up)
chain: TEETIKFAAAHYNTEILKSIDNEWRKTQCMPREVCIDVGKEFGVATNTFFKPPCVSVYRCGGCCNSEGLQCMNTSTSYLSKTLFEITVPLSQGPKPVTISFANHTSCRCMSKLDVYRQVHSIIRR
notes: also called Recombinant Human VEGF-C Protein
Take B4: in [3], the “IC50 (read off the curve)” value was ~2 nM.

B5: GARS Fc-WHEP (Fc fusion, UniProt P41250 63-119, looked up)
chain: VLAPLRLAVRQQGDLVRKLKEDKAPQVDVDKAVAELKARKRVLEAKELALQPKDDIV
notes: domain: WHEP domain; not shown: Fc domain
Consider B5, for which the binding result in [4] was “no binding (tested: 20 nM)”.

B6: KL31-467 (antibody, V domains shown)
VH: QVQLVQSGAEVKKPGASVKVSCKASGYTFTDYCIGWIRQAPGQGLEWMGDICPGDTYTNDNEKFKDRATMTADTSTSTAYMELSSLRSEDTAVYYCARGEEQLGLRNAMDYWGQGTLVTVSS
VL: DIVMTQSPDSLAVSLGERATINCQSQSVSTSTYNYMHWYQQKPGQPPKLLIKYASNLESGVPDRFSGSGSGTDFTLTISSLQAEDVATYYCQHSWEIPWTFGGGTKVEIK
notes: Humanized; IgG1m(zf) kappa
On to B6, for which the Kd (commonly the free concentration of one partner at which half of the binding sites on the other are occupied at equilibrium, for simple one-to-one binding) in the assay with Human HARS is 0.21 nM; in the assay with Mouse HARS, 0.96 nM. For the same molecule, the “IC50 (read off the curve)” value with Fc-HRS(2-60) [5] was ~20 nM.

B7: KL31-356 (antibody, IgG4, V domains shown)
VH: QVQLVQSGAEVKKPGASVKVSCKASGYTFTDYCIGWIRQAPGQGLEWMGDICPGDTYTNDNEKFKDRATMTADTSTSTAYMELSSLRSEDTAVYYCARGEEQLGLRNAMDYWGQGTLVTVSS
VL: DIVMTQSPDSLAVSLGERATINCQSQSVSTSTYNYMHWYQQKPGQPPKLLIKYASNLESGVPDRFSGSGSGTDFTLTISSLQAEDVATYYCQHSWEIPWTFGGGTKVEIK
notes: Humanized; IgG4-2 kappa
As for B7, the results for the Kd with Human HARS and with Mouse HARS were 0.3 nM and 1.4 nM, respectively. Moreover, in the assay with Fc-HRS(2-60) [5], the “IC50 (read off the curve)” value was ~20 nM.

B8: KL31-478 (antibody, V domains shown)
VH: QVQLVQSGAEVKKPGASVKVSCKASGYTFTDYCIGWIRQAPGQGLEWMGDICPGDTYTNDNEKFKDRATMTADTSTSTAYMELSSLRSEDTAVYYCARGEEQLGLRNAMDYWGQGTLVTVSS
VL: EIVLTQSPATLSLSPGERATLSCQSQSVSTSTYNYMHWYQQKPGQAPRLLIKYASNLESGIPDRFSGSGSGTDFTLTISRLEPEDFATYYCGHSYEIPWTFGGGTKVEIK
notes: Humanized; IgG1m(zf) kappa
On to B8, for which the Kd was determined as 0.076 nM with Human HARS and 0.614 nM in the assay with Mouse HARS. Also, in the assay with Fc-HRS(2-60) [6], the “IC50 (read off the curve)” value is ~10 nM.

B9: MARS Fc-WHEP (Fc fusion, UniProt P56192 841-897, looked up)
chain: QIQALMDEVTKQGNIVRELKAQKADKNEVAAEVAKLLDLKKQLAVAEGKPPEAPKGK
notes: as for B5
Take B9: the binding result in assay [7] is listed as “no binding (tested: 20 nM)”.

Source of the values: patent US20180282402A1 (ATYR PHARMA, published 2018).
